How the values were obtained:
[1] = target: T1, 614; assay: immunoprecipitation from cell lysate (CL) with 77A, Western blot GFP [panel C]
T1 construct: lane label in panel C
Experimental: (§1) IP of cell extracts with 77A was followed by detection of proteins by Western blotting (WB) with an anti-GFP antibody (B). Smaller deletions were then generated for finer mapping (C), and the indicated IPs were performed from cell lysates (CL) or culture media supernatants (CM). Loading was confirmed with an a-light chain (LC) antibody. The putative binding domain for 77A is indicated on a molecular model of HSP70 representing the relevant region of the protein (D). The exact amino acids that comprise the 77A epitope were determined using alanine scanning analysis, and the results are shown in (E), and the ribbon diagram showing the primary and secondary critical sites is shown in (F).
(§2) Alanine scanning analysis was performed to identify key amino acids in HSP70 with which 77A interacts (FIG. 3E).

[2] = target: T2, 534; assay: immunoprecipitation of cell extracts with 77A, Western blot with anti-GFP [panel B]
T2 construct: lane label in panels A and B
Experimental: as §1, §2

[3] = target: T3, ADP-HSP70 (ADP-enriched HSP70) (Homo sapiens (Human), UniProt P0DMV8 1-641); assay: BLI, 77A on sensor
T3 construct: also called ADP-HSP70 complexes
Experimental: HSP70 was expressed in SF9 cells. Affinity chromatography using resins selective for ADP or ATP-binding proteins were used to enrich bulk preparations of the correspondingly bound HSP70 recombinant protein. Protein concentrations, determined after elution, were measured so that equal concentrations could be used in subsequent assays. For BLI-based assays, antibodies and reagents were diluted out onto microwell plates and loaded into the instrument. Antibodies being tested were immobilized onto dip-and-read sensors and then observed for kinetics during binding to ATP or ADP-enriched HSP70. For ELISA, the relevant enriched HSP70 proteins were directly coated onto ELISA plate wells overnight. Test antibodies were then serially diluted across the plate wells, and detected using an appropriate secondary antibody-HRP conjugate. The plates were developed using a TMB substrate, and the O.D. stabilized using an acid stop solution.

T1 sequence (chain, as listed by the source limits assumed): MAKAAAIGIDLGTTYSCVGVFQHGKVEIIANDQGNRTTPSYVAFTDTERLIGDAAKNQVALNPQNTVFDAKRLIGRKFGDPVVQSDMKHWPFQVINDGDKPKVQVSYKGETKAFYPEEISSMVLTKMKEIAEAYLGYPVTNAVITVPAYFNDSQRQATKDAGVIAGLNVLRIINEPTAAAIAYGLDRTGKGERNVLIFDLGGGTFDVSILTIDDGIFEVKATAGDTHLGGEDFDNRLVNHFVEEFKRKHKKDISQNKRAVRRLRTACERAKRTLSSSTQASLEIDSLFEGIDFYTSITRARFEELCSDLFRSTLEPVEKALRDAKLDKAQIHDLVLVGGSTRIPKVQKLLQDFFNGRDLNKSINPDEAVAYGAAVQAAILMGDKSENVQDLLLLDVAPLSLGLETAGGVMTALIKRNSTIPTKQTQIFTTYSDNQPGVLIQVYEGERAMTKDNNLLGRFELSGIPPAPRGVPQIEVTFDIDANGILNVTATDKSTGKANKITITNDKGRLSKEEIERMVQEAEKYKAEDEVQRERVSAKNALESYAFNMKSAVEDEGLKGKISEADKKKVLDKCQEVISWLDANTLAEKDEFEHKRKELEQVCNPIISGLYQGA
T3 sequence (P0DMV8 whole entry): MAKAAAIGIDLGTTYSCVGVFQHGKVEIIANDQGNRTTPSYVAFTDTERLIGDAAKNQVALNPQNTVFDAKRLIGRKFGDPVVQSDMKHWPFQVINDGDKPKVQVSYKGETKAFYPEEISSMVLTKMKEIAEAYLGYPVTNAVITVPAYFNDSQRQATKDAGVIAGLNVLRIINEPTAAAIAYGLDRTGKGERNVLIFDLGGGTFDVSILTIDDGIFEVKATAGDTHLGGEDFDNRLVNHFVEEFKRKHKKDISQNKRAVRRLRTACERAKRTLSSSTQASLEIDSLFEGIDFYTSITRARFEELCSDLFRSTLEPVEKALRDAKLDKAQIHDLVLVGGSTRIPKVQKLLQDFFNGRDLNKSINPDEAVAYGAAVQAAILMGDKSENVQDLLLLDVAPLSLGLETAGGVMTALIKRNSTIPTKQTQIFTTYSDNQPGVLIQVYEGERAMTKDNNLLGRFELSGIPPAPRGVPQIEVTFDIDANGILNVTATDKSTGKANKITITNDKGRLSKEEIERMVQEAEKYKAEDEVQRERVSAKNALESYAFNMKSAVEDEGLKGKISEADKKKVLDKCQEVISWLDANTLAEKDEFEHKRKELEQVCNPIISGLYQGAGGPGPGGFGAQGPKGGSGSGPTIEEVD
T2 sequence (chain, as listed by the source limits assumed): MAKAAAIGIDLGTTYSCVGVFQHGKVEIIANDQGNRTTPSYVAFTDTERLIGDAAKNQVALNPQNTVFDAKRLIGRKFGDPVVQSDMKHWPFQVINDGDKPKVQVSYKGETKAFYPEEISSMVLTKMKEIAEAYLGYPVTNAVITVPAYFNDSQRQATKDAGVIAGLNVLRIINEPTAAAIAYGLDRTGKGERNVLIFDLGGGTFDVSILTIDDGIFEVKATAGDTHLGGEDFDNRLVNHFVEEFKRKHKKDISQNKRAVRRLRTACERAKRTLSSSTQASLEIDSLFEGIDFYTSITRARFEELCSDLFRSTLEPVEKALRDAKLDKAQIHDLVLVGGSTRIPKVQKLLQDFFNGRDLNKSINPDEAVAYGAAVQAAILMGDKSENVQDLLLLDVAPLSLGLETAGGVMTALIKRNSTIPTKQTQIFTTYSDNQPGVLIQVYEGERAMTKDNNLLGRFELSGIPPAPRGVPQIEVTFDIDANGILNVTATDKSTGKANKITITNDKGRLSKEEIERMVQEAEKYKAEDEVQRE

binding result [1]: binds
binding result [2]: binds
fold greater affinity (KD) than for ATP-enriched HSP70 [3]: ≥ 4 fold
B1: 77A antibody (clone 77A, murine anti-HSP70 mAb) (antibody, V domains shown)
VH: QIQLVQSGPELKKPGETVKISCKASGYTFTNYGMNWVKQAPGKGLKWMGWINTYTGEPTYADDFKGRFAFSLETSATTAYLQINNLKNEDTATYFCARYDHAMDYWGQGTSVTVSS
VL: DIVMSQSPSSLAVSAGEKVTMSCKSSQSLLNSGTRKNYLAWYQQKPGQSPKLLIYWTSTRESGVPDRFTGSGSGTDFTLTINSVQAEDLAVYYCKQSYTLYTFGGGTKLEIK
notes: Murine hybridoma mAb; its isotype control is IgG2B; also called mAb 77A
